Results on five molecules are retold here after patent EP1659133.

Test [1] has as its target RSV F protein (C-terminal truncated) (respiratory syncytial virus, UniProt P03420). Put plainly: SPR. On the technique in general: Surface plasmon resonance follows binding to a sensor surface in real time, without labels.
The target of test [2] is T1, RSV F protein from infected HEp2 cell lysate (respiratory syncytial virus, UniProt P03420). Description: ELISA, apparent (unit printed as 10mm). For orientation: In an ELISA, binding on a coated surface is turned into a signal by an enzyme label.
T1 sequence (P03420 26-524): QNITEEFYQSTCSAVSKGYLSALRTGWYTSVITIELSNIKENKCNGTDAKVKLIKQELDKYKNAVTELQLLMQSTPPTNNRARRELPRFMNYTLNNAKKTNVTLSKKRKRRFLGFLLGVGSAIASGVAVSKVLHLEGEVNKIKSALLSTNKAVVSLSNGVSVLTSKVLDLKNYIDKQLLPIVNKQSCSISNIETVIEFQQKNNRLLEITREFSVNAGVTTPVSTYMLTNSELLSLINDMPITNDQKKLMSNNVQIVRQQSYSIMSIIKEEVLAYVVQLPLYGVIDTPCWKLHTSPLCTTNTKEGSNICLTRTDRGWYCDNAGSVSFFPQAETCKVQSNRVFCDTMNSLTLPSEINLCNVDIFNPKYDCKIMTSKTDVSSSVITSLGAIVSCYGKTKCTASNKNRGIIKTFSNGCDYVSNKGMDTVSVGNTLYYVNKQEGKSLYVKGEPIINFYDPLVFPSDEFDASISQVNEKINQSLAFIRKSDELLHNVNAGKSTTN
The target of test [3] is T1, RSV F protein from infected HEp2 cell …. Description: ELISA, apparent.

Chain of RSV F protein (C-terminal truncated) (P03420 26-524): as above

B1: H1308F (antibody, V domains shown)
VH: QVQLVQSGAEVKKPGASVKVSCKASGFNIKDYYIYWVRQAPGQGLEWIGWIDPENGNTVFDPKFQGRVTMTRDTSTSTVYMELSSLRSEDTAVYYCAYYGTSSFDFWGQGTTLTVSS
VL: DIQMTQSPSTLSASVGDRVTITCKASQDINRYLNWYQQKPGKAPKLLIYRANRLVDGVPSRFSGSGSGTEFTLTISSLQPDDFATYYCLQFHEFPYTFGGGTKLEIK
In test [1], B1 had a Kd of 2.5 nM.

B2: CH1129 (M1129HuGamma1,Kappa) (antibody, V domains shown)
VH: QVELQESGPGILQPSQTLSLTCSFSGFSLSTSGMSVGWIRQPSGEGLEWLADIWWDDKKDYNPSLKSRLTISKDTSSNQVFLKITGVDTADTATYYCARSMITNWYFDVWGAGTTVTVSS
VL: DIQLTQSPAIMSASPGEKVTMTCSASSSVGYMHWYQQKSSTSPKLWIYDTSKLASGVPGRFSGSGSGNSYSLTISSIQAEDVATYYCFQGSGYPFTFGGGTKLEIK
With B2, the Kd in test [1] turned out to be 1.5 nM; in test [2], 10 nM.

B3: M1129 (antibody, V domains shown)
VH: B2 VH
VL: B2 VL
As to B3, the Kd in test [1] came out at 11.4 nM.

B4: H1129 (humanized 1129) (antibody, V domains shown)
VH: QVTLRESGPALVKPSQTLTLTCSFSGFSLSTSGMSVGWIRQPSGKALEWLADIWWDDKKDYNPSLKSRLTISKDTSKNQVVLKVTNVDPADTATYYCARSMITNWYFDVWGAGTTVTVSS
VL: DIQMTQSPSTLSASVGDRVTITCKCQLSVGYMHWYQQKPGKAPKLWIYDTSKLASGVPSRFSGSGSGTEFTLTISSLQPDDFATYYCFQGSGYPFTFGGGTKLEIK
For B4, the Kd in test [3] stood at 0.7 nM; in test [1] it was 1.4 nM.

B5: M1308F (antibody, V domains shown)
VH: EVQLQQSGAELVRPGALVKLSCKASGFNIKDYYIYWVKQRPEQGLEWIGWIDPENGNTVFDPKFQGKASITSDTSSNTAYLQLSSLTSEDTAVYYCAYYGTSSFDFWGQGTTLTVSS
VL: DIKMTQSPSSMYVSLGERVTITCKASQDINRYLNWFQQKPGKSPKTLIHRANRLVDGVPSRFSGSGSGQEYSLTISSLEFEDMGIYYCLQFHEFPYTFGGGTKLEIK
With B5, the Kd in test [1] was 1.1 nM.
